# Measurements from paper PMC4833811.
# How the values were obtained:
# GST-14-3-3γ:γ homodimer = target: T1, GST-14-3-3γ:γ homodimer (UniProt P61981)
# T1 sequence: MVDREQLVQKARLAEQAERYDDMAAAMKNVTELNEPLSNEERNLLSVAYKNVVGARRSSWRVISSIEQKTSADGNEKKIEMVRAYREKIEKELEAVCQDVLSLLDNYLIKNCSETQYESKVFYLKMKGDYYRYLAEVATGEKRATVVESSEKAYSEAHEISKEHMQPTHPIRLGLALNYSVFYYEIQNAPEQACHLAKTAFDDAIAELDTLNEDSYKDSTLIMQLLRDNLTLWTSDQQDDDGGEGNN
# 14-3-3ε:ζ heterodimer = 14-3-3ε:ζ heterodimer (UniProt P62258)
# UniProt P62258, sequence (P62258 whole entry, chain 1 of 2): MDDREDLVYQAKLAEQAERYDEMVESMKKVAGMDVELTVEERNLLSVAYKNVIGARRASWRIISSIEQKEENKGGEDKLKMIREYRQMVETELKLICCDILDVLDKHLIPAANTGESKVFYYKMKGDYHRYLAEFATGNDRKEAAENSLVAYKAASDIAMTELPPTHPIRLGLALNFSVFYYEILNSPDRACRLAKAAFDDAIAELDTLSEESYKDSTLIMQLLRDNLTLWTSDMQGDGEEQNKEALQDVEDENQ
# UniProt P62258, sequence (P62258 other isoform, or with tags, fused parts or gaps, chain 2 of 2): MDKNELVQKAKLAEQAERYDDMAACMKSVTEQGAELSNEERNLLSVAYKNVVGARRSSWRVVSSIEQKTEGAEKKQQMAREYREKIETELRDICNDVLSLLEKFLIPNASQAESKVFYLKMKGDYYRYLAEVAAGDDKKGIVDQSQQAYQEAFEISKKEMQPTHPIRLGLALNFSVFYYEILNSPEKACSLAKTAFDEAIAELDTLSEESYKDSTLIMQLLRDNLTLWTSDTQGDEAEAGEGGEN
substance,measurement,setting,value
bovine tyrosine hydroxylase phosphorylated by PRAK on Ser19 (from UniProt P17289 1-491) (enzyme),"relative activation of bTH-pS19 activity (maximal, 12.5–100 µg/ml thrombin-cleaved 14-3-3, BH4 as cofactor); highest activation",GST-14-3-3γ:γ homodimer,4.4 fold
same,"relative activation of bTH-pS19 activity (maximal, 12.5–100 µg/ml thrombin-cleaved 14-3-3, BH4 as cofactor); lowest activation",14-3-3ε:ζ heterodimer,3.3 fold
